This note sets out measurements from patent US20090111745A1.

This assay has as its target human serum albumin (human), P02768. The assay is described as follows: sandwich ELISA, HSA coated at 10 µg/ml, conjugate at 1 µM, detection with anti-FITC antibody.

B1: DOM7h-8cys/FITC conjugate (protein)
VL: DIQMTQSPSSLSASVGDRVTITCRASQSISSYLNWYQQKPGKAPKLLIYRNSPLQSGVPSRFSGSGSGTDFTLTISSLQPEDFATYYCQQTYRVPPTFGQGTKVEIKC
modifications: not checked
With B1, the OD600 stood at 0.38 OD600.
